The target of the data set is Integrin alpha-v beta-3 (UniProt P06756+P05106). Nature of the data set: filter. The conditions noted are these: BzdU replaces dT in the extended strand, HEPES, NaCl, KCl, MgCl2 buffer, 37 C.
Sequence of Integrin alpha-v beta-3 (P06756 31-992, chain 1 of 2): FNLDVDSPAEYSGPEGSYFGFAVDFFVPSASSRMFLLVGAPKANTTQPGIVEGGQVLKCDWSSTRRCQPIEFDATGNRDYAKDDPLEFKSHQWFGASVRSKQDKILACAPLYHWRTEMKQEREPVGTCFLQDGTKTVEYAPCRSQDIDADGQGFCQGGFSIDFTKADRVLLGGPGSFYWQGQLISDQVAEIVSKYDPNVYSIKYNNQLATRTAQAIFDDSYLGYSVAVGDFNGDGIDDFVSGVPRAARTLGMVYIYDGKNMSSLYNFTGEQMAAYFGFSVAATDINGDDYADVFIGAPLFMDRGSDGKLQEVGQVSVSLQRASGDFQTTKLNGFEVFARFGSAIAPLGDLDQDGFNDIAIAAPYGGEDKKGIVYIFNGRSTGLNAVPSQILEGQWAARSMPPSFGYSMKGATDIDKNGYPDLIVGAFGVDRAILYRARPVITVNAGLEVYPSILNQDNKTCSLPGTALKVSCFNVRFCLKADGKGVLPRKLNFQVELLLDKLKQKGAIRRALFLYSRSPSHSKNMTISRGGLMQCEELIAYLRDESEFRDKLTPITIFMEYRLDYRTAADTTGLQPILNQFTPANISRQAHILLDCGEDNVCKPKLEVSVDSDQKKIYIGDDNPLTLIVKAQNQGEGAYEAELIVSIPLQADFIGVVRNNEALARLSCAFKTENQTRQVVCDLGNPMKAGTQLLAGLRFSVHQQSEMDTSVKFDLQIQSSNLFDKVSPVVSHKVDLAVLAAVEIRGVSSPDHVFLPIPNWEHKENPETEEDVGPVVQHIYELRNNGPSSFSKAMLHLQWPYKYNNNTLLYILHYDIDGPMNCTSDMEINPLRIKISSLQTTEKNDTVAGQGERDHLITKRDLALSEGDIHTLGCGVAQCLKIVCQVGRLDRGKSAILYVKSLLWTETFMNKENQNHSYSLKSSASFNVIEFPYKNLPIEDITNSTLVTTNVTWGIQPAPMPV
Sequence of Integrin alpha-v beta-3 (P05106 27-718, chain 2 of 2): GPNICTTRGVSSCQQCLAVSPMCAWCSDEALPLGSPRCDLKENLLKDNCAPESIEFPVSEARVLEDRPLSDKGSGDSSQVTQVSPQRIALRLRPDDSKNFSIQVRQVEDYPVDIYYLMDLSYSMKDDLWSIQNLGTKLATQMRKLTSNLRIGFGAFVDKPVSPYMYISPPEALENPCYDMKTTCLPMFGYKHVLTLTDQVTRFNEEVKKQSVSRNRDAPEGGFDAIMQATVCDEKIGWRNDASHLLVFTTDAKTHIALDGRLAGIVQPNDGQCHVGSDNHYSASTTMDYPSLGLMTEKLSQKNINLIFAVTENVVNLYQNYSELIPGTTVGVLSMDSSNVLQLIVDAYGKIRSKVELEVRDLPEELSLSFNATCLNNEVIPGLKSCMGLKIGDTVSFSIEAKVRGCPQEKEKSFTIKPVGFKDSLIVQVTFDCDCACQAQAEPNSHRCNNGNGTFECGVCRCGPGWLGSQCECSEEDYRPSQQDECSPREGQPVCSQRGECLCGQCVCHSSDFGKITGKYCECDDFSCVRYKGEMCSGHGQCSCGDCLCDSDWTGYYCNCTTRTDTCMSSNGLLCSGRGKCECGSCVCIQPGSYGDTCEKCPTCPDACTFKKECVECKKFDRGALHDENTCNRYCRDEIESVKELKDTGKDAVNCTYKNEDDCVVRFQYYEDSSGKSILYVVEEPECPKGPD

Broadly, the Kd is the equilibrium constant for the complex coming apart. Low readings indicate a tighter complex, high ones a looser complex. As to “TCAGCCGCCAGCCAGTTCTGACCAGAGCACCACAGAG [Round 8 SELEX pool]”, the Kd (n = selected N40 region [n positions 19 = modified dU], Bmax 0.45) turned out to be 0.0433 µM. Regarding “TCAGCCGCCAGCCAGTTCTGACCAGAGCACCACAGAG [Starting benzyl-dU random library]”, under “n = random N40 [n positions 19 = modified dU], Bmax 3.23E-11, essentially no binding”, the equilibrium dissociation constant (Kd) is 6.5 µM.

Source of the values: patent publication US20150359911.
